Assay results: PMC8339130
Read-outs that look alike come from different tables or passages of the source.

Columns and labels:
[1] = molecular target: HIV-1 Gag matrix domain (MA) (HIV-1); assay: crystal structure; MA co-crystallised with IP6; three crystal forms: cryogenic MA_IP6_R32 (2.40 Å), cryogenic MA_IP6_C2 (2.72 Å, six chains in the asymmetric unit), ambient-temperature SFX MA_IP6_SFX_P1 (3.5 Å); PEG 3350 or PEG 4000/2-propanol, 100 mM MES pH 6.0-6.5
[2] = molecular target: HIV-1 Gag matrix domain (MA) (HIV-1); assay: as above; remark: listed apart in the source

“HIV-1 Gag matrix domain (MA) (domain or fragment)” gave a stoichiometry N [1] of 3 and a stoichiometry N [2] of 6.
